The target of test [1] is T1, human PSGL-1 on cells (Sp2/0-hPSGL-1 transfectants; activated human primary T cells) (human, UniProt Q14242 42-412).
T1 sequence (looked up): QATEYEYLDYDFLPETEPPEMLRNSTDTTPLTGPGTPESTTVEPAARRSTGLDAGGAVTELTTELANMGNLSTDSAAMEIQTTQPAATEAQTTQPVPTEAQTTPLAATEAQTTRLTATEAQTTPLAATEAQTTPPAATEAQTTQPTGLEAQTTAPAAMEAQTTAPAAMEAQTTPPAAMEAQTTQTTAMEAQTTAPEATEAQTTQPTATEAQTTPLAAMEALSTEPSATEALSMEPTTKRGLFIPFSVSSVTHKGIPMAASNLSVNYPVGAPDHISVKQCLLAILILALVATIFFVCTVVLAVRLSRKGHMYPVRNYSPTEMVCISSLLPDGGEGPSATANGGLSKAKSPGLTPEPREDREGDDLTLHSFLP
Put plainly: cell-based or functional assay.

The target in test [2] is T2, human PSGL-1 (extracellular domain) recombinant protein (SinoBiological, 13863-H08H) (human, UniProt Q14242 42-320).
T2 construct: extracellular domain; Bought protein; also called recombinant PSGL-1; hPSGL-1 extracellular domain antigen
T2 sequence (looked up): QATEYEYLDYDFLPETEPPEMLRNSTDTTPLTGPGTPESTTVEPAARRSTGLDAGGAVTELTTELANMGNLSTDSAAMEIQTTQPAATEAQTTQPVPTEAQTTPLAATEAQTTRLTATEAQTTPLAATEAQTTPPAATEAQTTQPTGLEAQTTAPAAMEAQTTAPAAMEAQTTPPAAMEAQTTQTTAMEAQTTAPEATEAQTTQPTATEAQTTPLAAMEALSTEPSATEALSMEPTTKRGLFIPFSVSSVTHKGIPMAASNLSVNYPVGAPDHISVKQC
Put plainly: ELISA, plate coated with recombinant PSGL-1 at lower density (0.03 pg/mL as printed), FIG. 3C. The procedure:
(§1) 96-well NUNC-Immuno plates (Thermo Fisher, Cat #442404) were coated with 100 μL per well of 0.5, 0.05, or 0.03 pg/mL human PSGL-1 (extracellular domain) recombinant protein (SinoBiological, 13863-H08H) overnight at 4° C. Plates were then washed with Wash Buffer (1×PBS with 0.05% Tween 20, pH 7.4) and blocked with 0.5% (w/v) BSA-PBS for 60 min at room temperature on a plate shaker set to 300 rpm. After blocking, 100 μL of serial dilutions of 15A7H-IgM, 15A7H-IgG4, and controls at concentration range of 5000 pM-4.89 pM were added to the wells and incubated at room temperature for 1 hour. […] After 5 final washes using Wash Buffer, the plates were read out using TMB substrate (followed the instruction manual of BD OptEIA. Cat. 555214) by incubating the wells with […] each of freshly prepared TMB Working Solution for 5 min followed by the addition of sulfuric acid to stop the reaction. Finally, the data of absorbance at 450 nm (OD450 nm) were collected on an ELISA plate reader and analyzed with SoftMax using a 4-parameter logistic model.
On the technique in general: In an ELISA, binding on a coated surface is turned into a signal by an enzyme label.

Test [3] addresses T2, human PSGL-1 (extracellular domain) …. As to the kind of experiment: ELISA, plate coated with recombinant PSGL-1 at lower density (0.05 pg/mL as printed), FIG. 3B. The method, then:
as §1

The target is the same in test [4]. Put plainly: ELISA, plate coated with recombinant PSGL-1 at high density (0.5 µg/mL), FIG. 3A. The procedure: as §1

B1: 15A7H-IgM (antibody)
heavy: EVQLVESGGGLVQPGGSLRLSCAASGFTFSSFGMHWVRQAPGKGLEWVAYINGGSSTIFYANAVKGRFTISRDNAKNTLYLQMNSLRAEDTAVYYCARYASYGGGAMDYWGQGTLVTVSSGSASAPTLFPLVSCENSPSDTSSVAVGCLAQDFLPDSITFSWKYKNNSDISSTRGFPSVLRGGKYAATSQVLLPSKDVMQGTDEHVVCKVQHPNGNKEKNVPLPVIAELPPKVSVFVPPRDGFFGNPRKSKLICQATGFSPRQIQVSWLREGKQVGSGVTTDQVQAEAKESGPTTYKVTSTLTIKESDWLSQSMFTCRVDHRGLTFQQNASSMCVPDQDTAIRVFAIPPSFASIFLTKSTKLTCLVTDLTTYDSVTISWTRQNGEAVKTHTNISESHPNATFSAVGEASICEDDWNSGERFTCTVTHTDLPSPLKQTISRPKGVALHRPDVYLLPPAREQLNLRESATITCLVTGFSPADVFVQWMQRGQPLSPEKYVTSAPMPEPQAPGRYFAHSILTVSEEEWNTGETYTCVVAHEALPNRVTERTVDKSTGKPTLYNVSLVMSDTAGTCY
light: DIQMTQSPSSLSASVGDRVTITCRSSQSIVHNDGNTYFEWYQQKPGKAPKLLIYKVSNRFSGVPSRFSGSGSGTHFTLTISSLQPEDFATYYCFQGSYVPLTFGQGTKVEIKRTVAAPSVFIFPPSDEQLKSGTASVVCLLNNFYPREAKVQWKVDNALQSGNSQESVTEQDSKDSTYSLSSTLTLSKADYEKHKVYACEVTHQGLSSPVTKSFNRGEC
chain: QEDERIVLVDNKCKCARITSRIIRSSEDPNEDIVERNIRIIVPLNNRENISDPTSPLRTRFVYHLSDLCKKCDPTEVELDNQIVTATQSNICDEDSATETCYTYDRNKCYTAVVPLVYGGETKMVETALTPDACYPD
notes: also called 15A7H-IgM antibody; pentameric 15A7H-IgM
Consider B1, for which, in test [1], the “EC50 (nM) of apoptosis of activated T cells, Donor 1” value is 0.0177 nM; the “EC50 (nM) of apoptosis of activated T cells, Donor 2” value is 0.0152 nM; the “EC50 (nM) of apoptosis of activated T cells, Donor 3” value came to 0.0096 nM; the “EC50 (µg/mL) of apoptosis of activated T cells, Donor 1” value stood at 0.0156 µg/mL. Besides, in test [1], the “EC50 (µg/mL) of apoptosis of activated T cells, Donor 2” value amounted to 0.0134 µg/mL and the “EC50 (µg/mL) of apoptosis of activated T cells, Donor 3” value stood at 0.00844 µg/mL. The EC50 (as a rule, the concentration that produces a half-maximal response) in test [2] was 0.0396 nM. Besides, the EC50 in test [3] was found to be 0.0459 nM. For the same molecule, the EC50 in test [4] stood at 0.0926 nM.

B2: 15A7H-IgG4 (antibody, V domains shown)
VH: EVQLVESGGGLVQPGGSLRLSCAASGFTFSSFGMHWVRQAPGKGLEWVAYINGGSSTIFYANAVKGRFTISRDNAKNTLYLQMNSLRAEDTAVYYCARYASYGGGAMDYWGQGTLVTVSS
VL: DIQMTQSPSSLSASVGDRVTITCRSSQSIVHNDGNTYFEWYQQKPGKAPKLLIYKVSNRFSGVPSRFSGSGSGTHFTLTISSLQPEDFATYYCFQGSYVPLTFGQGTKVEIKR
notes: Bivalent IgG4 antibody described in WO 2012/174001; In some functional assays it was used with a mouse anti-human IgG Fc-gamma cross-linker (CL); also called anti-PSGL-1 bivalent mAb 15A7H; 15A7H-IgG4 + CL (when used with cross-linker)
Consider B2, for which the figures for the EC50 in test [2], in test [3] and in test [4] were 0.12 nM, 0.0974 nM and 0.141 nM, respectively.

The record behind these values is patent US20260250411A1 (ALTRUBIO, published 2026).
